From US20250297007A1 (published 2025)

Biological target: T1, recombinant protein TCRVB 6-5 (human, biotinylated (captured on a Biotin CAP chip); site not stated)
T1 construct: also called TCRVβ 6-5; TCRβ V6-5*01
T1 TCR beta: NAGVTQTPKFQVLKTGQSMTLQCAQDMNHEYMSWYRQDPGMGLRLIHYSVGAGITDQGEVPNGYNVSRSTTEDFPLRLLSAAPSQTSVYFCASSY
Test: SPR-type chip assay; TCRVB 6-5 captured on Biotin CAP Series S chip, construct as analyte, 1:1 binding model, 25C
Description: TCRVB 6-5 at 5 ug/mL was immobilized on a Biotin CAP Series S Sensor Chip to 60 RU. A-H.52 was diluted to 50 nM and then serially diluted two fold Association was 120 seconds, dissociation was 300 seconds. This assay was run in 1×HBS-EP+ Buffer pH 7.4 and 25C. The data was fit using a 1:1 binding model. A-H.52 is a phage clones and is a monovalent scFv. A-H.52 has two mutations on CDRH1.
(§1) TCRVB 6-5 at 5 ug/mL was immobilized on a Biotin CAP Series S Sensor Chip to 60 RU. A-H.53 was diluted to 50 nM and then serially diluted two fold. Association was 120 seconds, dissociation was 300 seconds. This assay was run in 1×HBS-EP+ Buffer pH 7.4 and 25C. The data was fit using a 1:1 binding model. A-H.53 (phage clone) affinity is in the pM range (Table 17).
as §1, with “A-H.54” for “A-H.53”, “model.” for “model. A-H.53 (phage clone) affinity is in the pM range (Table 17).”

B1: BJM0277 (antibody, V domains shown)
VH: QVQLVQSGAEVKKPGSSVKVSCKASGYSFTTYYIHWVRQAPGQGLEWMGWFFPGSGNIKYNEKFKGRVTITADTSTSTAYMELSSLRSEDTAVYYCAGSYYSYDVLDYWGQGTTVTVSS
VL: DIQMTQSPSFLSASVGDRVTITCKASQNVGINVVWHQQKPGKAPKALIYSSSHRYSGVPSRFSGSGSGTEFTLTISSLQPEDFATYFCQQFKSYPLTFGQGTKLEIKR
B1 showed a Kd of 35 nM.

B2: A-H.52 (scFv)
scFv: QVQLVQSGAEVKKPGSSVKVSCKASGYSFTLGYIHWVRQAPGQGLEWMGWFFPGSGNIKYNEKFKGRVTITADTSTSTAYMELSSLRSEDTAVYYCAGSYYSYDVLDYWGQGTTVTVSSGGGGSGGGGSGGGGSGGGGSDIQMTQSPSFLSASVGDRVTITCKASQNVGINVVWHQQKPGKAPKALIYSSSHRYSGVPSRFSGSGSGTEFTLTISSLQPEDFATYFCQQFKSYPLTFGQGTKLEIK
notes: Phage clone, stated to be a monovalent scFv with two mutations in CDRH1; also called Antibody A-H.52
B2 was tested, and the Kd was 1.76 nM.

B3: A-H.53 (scFv)
scFv: QVQLVQSGAEVKKPGSSVKVSCKASGYSFRLTYIHWVRQAPGQGLEWMGWFFPGSGNIKYNEKFKGRVTITADTSTSTAYMELSSLRSEDTAVYYCAGSYYSYDVLDYWGQGTTVTVSSGGGGSGGGGSGGGGSGGGGSDIQMTQSPSFLSASVGDRVTITCKASQNVGINVVWHQQKPGKAPKALIYSSSHRYSGVPSRFSGSGSGTEFTLTISSLQPEDFATYFCQQFKSYPLTFGQGTKLEIK
notes: Phage clone; also called Antibody A-H.53
B3 was tested, and the Kd was 0.165 nM.

B4: A-H.54 (scFv)
scFv: QVQLVQSGAEVKKPGSSVKVSCKASGYSFHNWYIHWVRQAPGQGLEWMGWFFPGSGNIKYNEKFKGRVTITADTSTSTAYMELSSLRSEDTAVYYCAGSYYSYDVLDYWGQGTTVTVSSGGGGSGGGGSGGGGSGGGGSDIQMTQSPSFLSASVGDRVTITCKASQNVGINVVWHQQKPGKAPKALIYSSSHRYSGVPSRFSGSGSGTEFTLTISSLQPEDFATYFCQQFKSYPLTFGQGTKLEIK
notes: Phage clone; also called Antibody A-H.54
Binder B4 has a Kd of 2.22 nM.
